# Measurements published in US20150246947A1 (BAXALTA, published 2015).
# Like-named read-outs stand apart in the source and are kept apart here. Non-standard residues stand in square brackets, D forms with d. 400Mal‑PEG = 40 kD PEG moiety attached via maleimide; Cys(Me-400MA) = not defined here
# T1: human Protein S (human, UniProt P07225 42-676)
# T1 construct: Called 'full length Protein S' / 'human full-length Protein S'; It was coated on plates (ELISA), Eu-labeled (LANCE) or immobilized on a chip (Biacore); also called PS; full length Protein S
# T1 sequence: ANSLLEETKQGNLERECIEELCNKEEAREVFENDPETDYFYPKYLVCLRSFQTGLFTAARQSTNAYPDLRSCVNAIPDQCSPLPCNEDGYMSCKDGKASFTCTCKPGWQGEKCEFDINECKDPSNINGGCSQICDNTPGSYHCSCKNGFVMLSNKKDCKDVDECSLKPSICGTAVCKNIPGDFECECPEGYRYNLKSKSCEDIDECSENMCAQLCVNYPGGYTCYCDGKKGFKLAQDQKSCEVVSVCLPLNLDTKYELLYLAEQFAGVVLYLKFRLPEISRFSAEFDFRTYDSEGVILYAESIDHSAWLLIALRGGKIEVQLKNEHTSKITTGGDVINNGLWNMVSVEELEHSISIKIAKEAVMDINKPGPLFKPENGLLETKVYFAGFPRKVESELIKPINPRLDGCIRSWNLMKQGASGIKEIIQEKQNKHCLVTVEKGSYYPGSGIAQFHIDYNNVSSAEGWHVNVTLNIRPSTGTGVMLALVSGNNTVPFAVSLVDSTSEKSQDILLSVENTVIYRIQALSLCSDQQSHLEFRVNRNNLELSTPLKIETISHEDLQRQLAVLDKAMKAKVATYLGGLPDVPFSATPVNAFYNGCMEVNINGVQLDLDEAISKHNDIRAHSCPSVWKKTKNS
# T2: human Protein S (UniProt P07225 42-676)
# T2 chain: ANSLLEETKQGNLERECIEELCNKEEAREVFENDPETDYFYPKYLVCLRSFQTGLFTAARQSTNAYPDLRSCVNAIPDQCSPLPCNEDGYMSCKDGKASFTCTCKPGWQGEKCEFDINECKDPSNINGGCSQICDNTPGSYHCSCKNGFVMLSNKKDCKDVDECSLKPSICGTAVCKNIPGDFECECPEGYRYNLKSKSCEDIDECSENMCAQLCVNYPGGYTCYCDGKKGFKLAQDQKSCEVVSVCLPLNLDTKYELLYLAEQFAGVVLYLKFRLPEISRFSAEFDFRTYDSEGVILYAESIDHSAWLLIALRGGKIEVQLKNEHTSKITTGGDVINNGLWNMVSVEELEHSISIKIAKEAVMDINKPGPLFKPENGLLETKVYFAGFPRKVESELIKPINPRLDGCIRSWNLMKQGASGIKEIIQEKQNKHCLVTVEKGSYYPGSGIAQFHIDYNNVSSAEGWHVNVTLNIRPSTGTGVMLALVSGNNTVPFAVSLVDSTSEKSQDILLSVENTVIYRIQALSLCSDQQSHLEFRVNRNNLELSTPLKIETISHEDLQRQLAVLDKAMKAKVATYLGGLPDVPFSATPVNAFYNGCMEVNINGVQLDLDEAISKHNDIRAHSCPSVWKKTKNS
# T3: human GAS6 (human, UniProt Q14393 49-678, limits assumed)
# T3 construct: Immobilized on the Biacore chip; also called protein encoded by the Growth Arrest Specific-6 gene; anti-target
# T3 sequence (looked up): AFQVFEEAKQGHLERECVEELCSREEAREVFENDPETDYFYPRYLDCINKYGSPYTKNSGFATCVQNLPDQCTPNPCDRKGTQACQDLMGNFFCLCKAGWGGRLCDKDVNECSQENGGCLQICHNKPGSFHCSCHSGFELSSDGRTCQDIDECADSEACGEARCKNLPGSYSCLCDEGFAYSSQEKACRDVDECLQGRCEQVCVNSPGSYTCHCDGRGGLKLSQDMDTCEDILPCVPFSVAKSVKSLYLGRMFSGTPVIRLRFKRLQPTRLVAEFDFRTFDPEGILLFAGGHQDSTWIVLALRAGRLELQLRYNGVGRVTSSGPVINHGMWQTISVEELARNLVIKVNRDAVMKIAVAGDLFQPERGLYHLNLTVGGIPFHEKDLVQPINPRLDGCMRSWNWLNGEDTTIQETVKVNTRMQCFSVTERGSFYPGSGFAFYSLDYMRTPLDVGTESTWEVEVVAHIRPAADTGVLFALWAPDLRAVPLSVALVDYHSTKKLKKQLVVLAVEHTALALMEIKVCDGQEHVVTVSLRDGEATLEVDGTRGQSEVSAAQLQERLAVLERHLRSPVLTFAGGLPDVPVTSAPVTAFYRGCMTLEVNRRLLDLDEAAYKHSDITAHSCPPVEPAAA
# Assays:
# [1] = target: T1, human Protein S; test: Biacore (SPR), Protein S immobilized
# Procedure, shortened: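 Surface plasmon resonance was used to measure peptide binding kinetics to human full-length Protein S, and Kd was calculated from the kon and koff obtained by Langmuir model fits of the sensorgrams. The protein was immobilized at 1000 RU on a […] chip in a Biacore 3000 or Biacore T200. Peptides were injected at various concentrations in HBS-buffer with 3 mM CaCl₂ and 1% DMSO, and the chip was regenerated using 4 M MgCl₂ in HBS-buffer.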
# [2] = target: T2, human Protein S; test: LANCE competition
# Procedure, shortened: (§1)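 This homogeneous time-resolved FRET competition assay (LANCE) used europium-labelled Protein S, ULight-labelled streptavidin and a biotinylated tracer peptide, with unlabelled test peptide titrated in three-fold steps. Final concentrations were 10 nM Protein S, 100 nM streptavidin and 300 nM tracer in 50 µl (or 2 nM Protein S and 60 nM tracer on a Tecan F500). Samples were incubated 1 hour at room temperature and read at Ex 340 nm, Em 665 nm. IC50 came from non-linear regression of the 665 nm signals.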
# [3] = target: T3, human GAS6; test: method not restated (Biacore in Example 3)
# Procedure, shortened: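 Binding to the anti-target human GAS6 was tested by surface plasmon resonance (Biacore), with 1000 RU GAS6 immobilized on a […] chip. Peptides were injected at various concentrations in HBS-buffer with 3 mM CaCl₂ and 1% DMSO, and the chip was regenerated with 4 M MgCl₂. Kinetic fitting of the GAS6 signals was error prone, so sensorgrams were reviewed visually to estimate anti-target binding.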
# [4] = target: T1, human Protein S; test: cell-based or functional assay
# [5] = target: T2, human Protein S; test: LANCE competition
# Procedure, shortened: as §1
# [6] = target: T1, human Protein S; test: LANCE TR-FRET; peptide added to preformed C4BP/Protein S complex; competitor C4BP
# Description: To investigate the effect of the peptides described herein on PS/C4BP complexes, a LANCE IC50 assay was established using methods similar to those described above. JBS2572 or JBS3216 was added to a preformed C4BP/PS complex. Changes in the complex concentration were followed by recording the TR-FRET signal. For both peptides, a time- and concentration-dependent dissociation of the C4BP/PS complex was observed. […] The time-dependency of the complex reduction was similar for both peptides. After two hours of incubation in the presence of 100 nM JBS2572 or JBS3216, the C4BP/PS complex was reduced to 60% and 50%, respectively. In addition, binding of biotinylated JBS2572 to Protein S was inhibited by C4BP in the LANCE IC50 assay. Pull-down experiments where JBS2697 was coupled to streptavidin sepharose and incubated for one hour at room temperature with (a) Protein S (1.6 pmol) (b) C4BP (8.5 pmol) and (c) Protein S (1.6 pmol)+C4BP (8.5 pmol) supported the results from the modified LANCE IC50 assay. JBS2697 interacted with free Protein S only from experiment (a) with Protein S alone and from experiment (c) with the C4BP-Protein S mixture.
Kd [1] [nM],koff [1] [s⁻¹],kon [1] [M⁻¹ s⁻¹],IC50 [2] [nM],binding result [3],"CAT EC50, plasmas from three individuals with severe hemophilia A [4] [nM]",IC50 [5] [nM],"CAT EC50, human hemophilia A patient plasma [4] [nM]",IC50 [6] [nM],CAT EC50 [4] [nM],Binder
3.6,0.000278,78000,4.5,no binding (tested: 1 µM),< 100,,,,,"Ac-EYIVTAGWYDYNKDIYYEFK[Cys(Me-400MA)]-NH2 (reading uncertain, JBS3206 monomer comprising a 40 kD PEG moiety) [JBS3322]"
1.4,0.000213,152000,2.8,no binding (tested: 1 µM),< 100,,,,,Ac-EYYVSAGWYDYNTDTYYEFEC(400Mal‑PEG)-NH2 (JBS3319 conjugated to a 40 kD PEG moiety) [JBS3318]
0.2,0.000233,1.14e+06,,,,0.7,85,0.3,,Ac-EYYVSAGWYDYNTDTYYEFE-NH2 [JBS3216]
0.4,0.000179,410000,,no binding (tested: 1 µM),< 100,8,,,6,Ac-TGLVSAGWYDYNFDHYREFTC-NH2 (not fully specified (residue 21); also: tetramer: four peptides on a 40 kD four-arm PEG core) [JBS3179]
